Columns and labels:
Conditions in all cases: glycan lost; control: Flag-LARP1-WT
[1] = Western blot, TMG with or without sh-circCLNS1A#1
[2] = cycloheximide chase, sh-circCLNS1A#1 vs sh-NC cells
[3] = cycloheximide chase, Western blot

Substance: La-related protein 1 (LARP1): S672A
- other: dependence of protein level on circCLNS1A [1]: abolishes
- other: dependence of protein stability on circCLNS1A [2]: abolishes
- degradation_or_half_life [3]: decreases

— article PMC10111636
